The source of these data is PMC2196875.

The test concerns the target titin fragment Z9-Z10 as used in isothermal titration calorimetry (human). The test can be described thus: ITC.

“untagged obscurin fragment Ob48-Ob49 (domain or fragment)” came in with a dissociation constant Kd of 100 to 200 nM.

As usually defined, the Kd is a measure of binding affinity in units of concentration. A lower Kd goes with tighter binding.
